Columns and labels:
Assay in all cases: EC50 of free RNA motif oligo competing protein binding to immobilised probe
MRPS22 = MRPS22 (UniProt P82650)
In short: (§1)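 To obtain EC50, data were fitted with a four-parameter log-logistic model; Kd was then EC50 multiplied by a protein-dependent depletion factor. Beforehand, free RNA oligos (0 nM to 30 μM) were pre-incubated with HEK293-FT lysate (2.5 mg protein/well) for 1 h at 4°C. The lysate then spent 30 min at 4°C with the same 5′-amino-C6 oligos coupled to NHS-Sepharose beads, and bound proteins were quantified by label-free LC-MS/MS, normalised to the control.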

MEX3C = biological target: T1, MEX3C (UniProt Q5U5Q3)
T1 sequence: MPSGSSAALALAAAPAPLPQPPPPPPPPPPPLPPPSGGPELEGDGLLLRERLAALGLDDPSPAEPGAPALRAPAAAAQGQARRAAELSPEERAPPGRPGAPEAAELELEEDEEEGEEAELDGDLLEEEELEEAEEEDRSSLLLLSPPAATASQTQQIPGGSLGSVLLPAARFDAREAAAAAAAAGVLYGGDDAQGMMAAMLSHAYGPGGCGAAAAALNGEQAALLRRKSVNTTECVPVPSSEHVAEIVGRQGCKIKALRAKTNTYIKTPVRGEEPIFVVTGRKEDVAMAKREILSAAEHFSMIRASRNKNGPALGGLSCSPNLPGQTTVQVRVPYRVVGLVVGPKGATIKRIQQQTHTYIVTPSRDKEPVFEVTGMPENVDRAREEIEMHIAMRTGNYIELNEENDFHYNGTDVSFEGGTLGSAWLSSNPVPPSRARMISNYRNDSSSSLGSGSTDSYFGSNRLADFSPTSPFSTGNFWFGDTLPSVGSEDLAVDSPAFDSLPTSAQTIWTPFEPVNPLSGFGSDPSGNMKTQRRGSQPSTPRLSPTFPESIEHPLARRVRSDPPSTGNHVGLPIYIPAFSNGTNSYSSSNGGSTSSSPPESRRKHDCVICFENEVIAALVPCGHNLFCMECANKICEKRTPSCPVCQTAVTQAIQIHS
In short: as §1

PPIE = PPIE (UniProt Q9UNP9)
Chain of PPIE (Q9UNP9 whole entry): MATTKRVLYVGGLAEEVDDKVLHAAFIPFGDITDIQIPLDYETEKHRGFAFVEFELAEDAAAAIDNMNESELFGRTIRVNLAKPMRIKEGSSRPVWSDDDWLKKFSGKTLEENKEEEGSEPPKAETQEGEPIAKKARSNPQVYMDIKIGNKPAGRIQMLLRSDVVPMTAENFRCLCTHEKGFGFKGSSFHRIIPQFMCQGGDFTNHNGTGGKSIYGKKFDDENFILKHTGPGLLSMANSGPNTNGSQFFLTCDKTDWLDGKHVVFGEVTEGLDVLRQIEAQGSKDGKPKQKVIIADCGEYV
In short: as §1

PRPF4 = biological target: T2, PRPF4 (UniProt O43172)
T2 sequence: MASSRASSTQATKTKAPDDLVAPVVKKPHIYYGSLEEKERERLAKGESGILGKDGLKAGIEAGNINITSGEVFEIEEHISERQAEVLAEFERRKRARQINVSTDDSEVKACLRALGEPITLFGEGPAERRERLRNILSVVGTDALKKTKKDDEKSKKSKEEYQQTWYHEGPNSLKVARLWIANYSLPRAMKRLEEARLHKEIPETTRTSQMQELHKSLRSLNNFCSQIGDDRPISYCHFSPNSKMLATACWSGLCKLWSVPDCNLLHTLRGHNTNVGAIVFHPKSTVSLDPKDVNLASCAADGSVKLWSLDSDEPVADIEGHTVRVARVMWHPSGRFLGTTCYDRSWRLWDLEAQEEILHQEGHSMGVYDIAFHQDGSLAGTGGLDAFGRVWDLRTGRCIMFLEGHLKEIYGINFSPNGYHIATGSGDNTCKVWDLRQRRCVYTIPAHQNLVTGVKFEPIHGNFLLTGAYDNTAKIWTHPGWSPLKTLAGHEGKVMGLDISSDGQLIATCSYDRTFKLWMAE
In short: as §1

FUBP1 = biological target: T3, FUBP1 (UniProt Q96AE4)
T3 sequence: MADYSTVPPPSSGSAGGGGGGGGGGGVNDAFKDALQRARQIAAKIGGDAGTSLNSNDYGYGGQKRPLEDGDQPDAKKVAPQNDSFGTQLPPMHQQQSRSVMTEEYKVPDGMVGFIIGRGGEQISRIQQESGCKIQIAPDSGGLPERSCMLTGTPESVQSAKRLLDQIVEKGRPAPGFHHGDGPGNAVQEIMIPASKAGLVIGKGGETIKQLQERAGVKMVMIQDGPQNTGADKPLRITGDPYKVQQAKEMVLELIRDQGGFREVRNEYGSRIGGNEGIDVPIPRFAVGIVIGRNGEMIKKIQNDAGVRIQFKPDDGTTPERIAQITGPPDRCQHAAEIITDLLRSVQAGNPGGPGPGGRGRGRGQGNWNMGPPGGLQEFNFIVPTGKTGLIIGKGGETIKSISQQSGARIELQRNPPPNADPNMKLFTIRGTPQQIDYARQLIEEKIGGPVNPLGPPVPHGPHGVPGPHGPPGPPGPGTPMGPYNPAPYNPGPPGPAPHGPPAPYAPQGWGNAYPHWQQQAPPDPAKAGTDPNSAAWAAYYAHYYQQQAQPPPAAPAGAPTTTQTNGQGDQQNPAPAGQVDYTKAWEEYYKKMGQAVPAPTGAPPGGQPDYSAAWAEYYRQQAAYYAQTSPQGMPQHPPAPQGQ
In short: as §1

IGF2BP2 = IGF2BP2 (UniProt Q9Y6M1)
Chain of IGF2BP2 (Q9Y6M1 whole entry): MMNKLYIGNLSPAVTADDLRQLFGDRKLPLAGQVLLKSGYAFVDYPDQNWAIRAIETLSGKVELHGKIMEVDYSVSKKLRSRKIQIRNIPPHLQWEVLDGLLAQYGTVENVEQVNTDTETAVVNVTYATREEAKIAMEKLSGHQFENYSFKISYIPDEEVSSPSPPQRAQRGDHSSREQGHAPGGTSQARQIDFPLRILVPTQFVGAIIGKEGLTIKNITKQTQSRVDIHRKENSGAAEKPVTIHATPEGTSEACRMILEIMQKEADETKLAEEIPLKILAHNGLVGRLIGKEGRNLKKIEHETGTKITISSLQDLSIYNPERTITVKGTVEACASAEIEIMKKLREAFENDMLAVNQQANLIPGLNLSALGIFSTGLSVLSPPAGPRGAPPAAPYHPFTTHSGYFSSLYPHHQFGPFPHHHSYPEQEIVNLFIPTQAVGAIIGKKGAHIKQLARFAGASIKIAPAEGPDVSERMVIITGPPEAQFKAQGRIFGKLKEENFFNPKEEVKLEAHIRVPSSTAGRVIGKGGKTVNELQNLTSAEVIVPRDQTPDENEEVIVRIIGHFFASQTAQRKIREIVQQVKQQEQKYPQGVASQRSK
In short: as §1

MRPL50 = MRPL50 (UniProt Q8N5N7)
In short: as §1

UAUUUAU
EC50 (MRPS22): 85.6 nM
EC50 (MEX3C): 799 nM
EC50 (PPIE): 300 nM
EC50 (PRPF4): 6810 nM

AAUAAA
EC50 (FUBP1): 5750 nM

CUGUCCU
EC50 (IGF2BP2): 2970 nM
EC50 (MRPL50): 244 nM
